Measured values as given in the supplement of paper PMC9732359.
± gives the uncertainty stated by the source.

Assay: protein stability index of a GFP-peptide fusion (yeast GPS) (PSI 1-4); higher = more stable; sorted into four equal gates, so the index is relative within each strain
How it was run: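 Yeast carrying a pooled library were grown to mid-log phase in leucine-free medium. Each library plasmid expresses Cherry and has a tiled 17-residue yeast protein peptide fused downstream of GFP. Cells were sorted into four equal gates by GFP/Cherry ratio, and plasmids from each gate were PCR-amplified, Illumina-sequenced and assigned to strains by barcode. Summing, across gates, the read frequency times the gate number gave each peptide's protein stability index.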

Sequence	protein stability index (doa10∆)	protein stability index (pdr5∆)	protein stability index (san1∆)	protein stability index (ubr1∆)
PSLEVASEYIETLGLKY [FAS1]	3.02 ± 0.069	3.3 ± 0.082	3.21 ± 0.07	3.05 ± 0.067
ELENFLDNFETKTEALL [YJL041W/NSP1]	2.62 ± 0.12	2.91 ± 0.14	2.72 ± 0.15	1.81 ± 0.1
IRNEGSDAEEEEGEYKN [ISW2]	–	–	–	3.44 ± 0.11
LFKALKVILNERGGKFH [RGR1]	2.44 ± 0.075	2.64 ± 0.068	2.17 ± 0.094	2.64 ± 0.059
NYYSNKSNSTGNISSST [REC8]	2.79 ± 0.1	3.02 ± 0.099	2.85 ± 0.059	3.09 ± 0.064
DEYQAAVEQRKKEKLDS [DPB4]	3.47 ± 0.13	3.34 ± 0.14	3.38 ± 0.11	3.39 ± 0.095
TDRITRLFIKPGQKMSL [BRN1]	3.22 ± 0.11	2.9 ± 0.11	2.97 ± 0.14	3.17 ± 0.1
NYVAVGDVSNLPYLDEL [QCR2]	3.13 ± 0.087	3.19 ± 0.096	2.97 ± 0.099	3.18 ± 0.051
GSYNAFEPASRLQGIKL [COR1]	2.95 ± 0.053	3.16 ± 0.068	3.15 ± 0.063	2.99 ± 0.073
LCAGANNPKIQTKDSVK [IRR1]	3.29 ± 0.1	2.99 ± 0.1	3.13 ± 0.11	3.15 ± 0.057
FMRNGLLEGLNEKIEKR [UBP6]	2.99 ± 0.29	2.87 ± 0.18	3.21 ± 0.26	3.55 ± 0.23
GCYFEEKRYDDKLLDFI [CSN12]	3.34 ± 0.06	2.92 ± 0.098	3.04 ± 0.066	3.04 ± 0.077
AYEEEEENEDNDGNNRT [NUT1]	3.25 ± 0.12	3.37 ± 0.11	3.47 ± 0.15	3.46 ± 0.068
ECQVIAAEGLCKLFLAD [YCG1]	3.29 ± 0.066	3.29 ± 0.067	3.11 ± 0.047	3.25 ± 0.036
QEPFLNSSNYAELFNND [PRP8]	2.61 ± 0.051	2.86 ± 0.046	2.55 ± 0.071	2.82 ± 0.048
DIPPPAIMKPYYLWTGK [RPO31]	2.74 ± 0.068	2.77 ± 0.075	2.9 ± 0.074	2.79 ± 0.047
PLPPRIDPSVTMMTVEE [RPT1]	2.16 ± 0.08	1.9 ± 0.076	2.12 ± 0.17	1.88 ± 0.062
SAEYLQMSLEANVVDIT [YJR042W/NUP85]	1.8 ± 0.064	2.19 ± 0.065	2.05 ± 0.14	2.38 ± 0.058
LVALKRNADELSSYQKK [PRE5]	2.4 ± 0.048	2.43 ± 0.041	2.68 ± 0.043	2.28 ± 0.033
TSRKALEEVSLKWIDTA [RPL3]	1.67 ± 0.098	1.89 ± 0.094	1.82 ± 0.12	1.9 ± 0.088
SVGTDPMPIITFLSEWG [RPB2]	2.7 ± 0.1	1.99 ± 0.057	1.57 ± 0.094	2.22 ± 0.062
CTFSMEPYHFISNYNTK [SRB8]	1.99 ± 0.083	2.09 ± 0.05	1.5 ± 0.079	1.71 ± 0.052
NVLLLDSNGDFNEDQLF [RRP46]	3.17 ± 0.064	3.04 ± 0.054	3.32 ± 0.055	3.17 ± 0.044
LSNLSKDIKANLSSNVN [YCS4]	2.85 ± 0.05	3.03 ± 0.068	3.04 ± 0.06	2.93 ± 0.046
EAVKQAAKIIYLAHEDN [PRE10]	2.75 ± 0.19	3.02 ± 0.12	3.3 ± 0.22	2.55 ± 0.14
IIVPDLIELKSDLLVAP [YML103C/NUP188]	1.65 ± 0.052	1.8 ± 0.056	1.95 ± 0.094	1.69 ± 0.059
